We go through 6 molecules from patent US20020062008A1 (ICOS, published 2002).

The labels stand for the following.
B4: soluble VCAM-1/IgG1 fusion protein (seven extracellular immunoglobulin-like domains) (Fc fusion, UniProt P19320 25-698, looked up)
chain: FKIETTPESRYLAQIGDSVSLTCSTTGCESPFFSWRTQIDSPLNGKVTNEGTTSTLTMNPVSFGNEHSYLCTATCESRKLEKGIQVEIYSFPKDPEIHLSGPLEAGKPITVKCSVADVYPFDRLEIDLLKGDHLMKSQEFLEDADRKSLETKSLEVTFTPVIEDIGKVLVCRAKLHIDEMDSVPTVRQAVKELQVYISPKNTVISVNPSTKLQEGGSVTMTCSSEGLPAPEIFWSKKLDNGNLQHLSGNATLTLIAMRMEDSGIYVCEGVNLIGKNRKEVELIVQEKPFTVEISPGPRIAAQIGDSVMLTCSVMGCESPSFSWRTQIDSPLSGKVRSEGTNSTLTLSPVSFENEHSYLCTVTCGHKKLEKGIQVELYSFPRDPEIEMSGGLVNGSSVTVSCKVPSVYPLDRLEIELLKGETILENIEFLEDTDMKSLENKSLEMTFIPTIEDTGKALVCQAKLHIDDMEFEPKQRQSTQTLYVNVAPRDTTVLVSPSSILEEGSSVNMTCLSQGFPAPKILWSRQLPNGELQPLSENATLTLISTKMEDSGVYLCEGINQAGRSRKEVELIIQVTPKDIKLTAFPSESVKEGDTVIISCTCGNVPETWIILKKKAETGDTVLKSIDGAYTIRKAQLKDAGVYECESKNKVGSQLRSLTLDVQGRENNKDYFSPE
notes: domain: seven extracellular immunoglobulin-like domains; not shown: IgG1 portion
B6: soluble ICAM-1/IgG1 fusion protein (Fc fusion, UniProt P05362 28-480, looked up)
chain: QTSVSPSKVILPRGGSVLVTCSTSCDQPKLLGIETPLPKKELLLPGNNRKVYELSNVQEDSQPMCYSNCPDGQSTAKTFLTVYWTPERVELAPLPSWQPVGKNLTLRCQVEGGAPRANLTVVLLRGEKELKREPAVGEPAEVTTTVLVRRDHHGANFSCRTELDLRPQGLELFENTSAPYQLQTFVLPATPPQLVSPRVLEVDTQGTVVCSLDGLFPVSEAQVHLALGDQRLNPTVTYGNDSFSAKASVSVTAEDEGTQRLTCAVILGNQSQETLQTVTIYSFPAPNVILTKPEVSEGTEVTVKCEAHPRAKVTLNGVPAQPLGPRAQLLLKATPEDNGRSFSCSATLEVAGQLIHKNQTRELRVLYGPRLDERDCPGNWTWPENSQQTPMCQAWGNPLPELKCLKDGTFPLPIGESVTVTRDLEGTYLCRARSTQGEVTRKVTVNVLSPRYE
notes: not shown: IgG1 portion (detected with anti-human IgG1)

For assay [1], the target named is T1, human αd/CD18 heterodimer expressed on transfected cells (COS, CHO, JY) (human, UniProt P05107 23-769).
T1 construct: whole, on cells; also used as detergent lysate in immunoprecipitations; also called αd/CD18 CHO transfected cells; αd/CD18 co-transfectants
In words: adhesion of αdβ2-transfected CHO cells to coated wells. The method, then: For transfected and parental CHO cells, adhesion was performed using coated plates identical to those employed for eosinophil adhesion. […] A modification of a previously described gentle washing technique [Shanley, et al., J. Immunol. 160:1014 (1998)] was therefore employed. This technique allowed non-adherent cells to be dislodged from the inverted plate with centrifugation at 1×g for 30 minutes at 20° C. Remaining adherent cells were then removed using 0.1 M EDTA (Sigma) and counted by flow cytometry. In addition to VCAM-1, E-selection (100 ng/ml) was also used to coat wells in some adhesion experiments. In addition to the blocking monoclonal antibodies used in the eosinophil studies, immobilized VCAM-1 was pretreated with an appropriate dilution of F(ab′)₂ anti-VCAM-1 monoclonal antibody prior to the addition of CHO cells.
Chinese hamster ovary cells were transfected as described in Example 11. The αdβ₂-transfected CHO cells were cultured in DMEM/F12 media with 1 mM pyruvate and 2 mM L-glutamine (Biofluids) supplemented with 10% dialyzed FBS, 100 U/ml penicillin, 100 μg/ml streptomycin, and 600 μg/ml G418 (all from Life Technologies). Media for culture of the parental CHO cell line was similar except that non-dialyzed FBS (Life Technologies) was used and 0.1 mM hypoxanthine and 16 nM thymidine (Sigma) were used in place of the G418. […]

Assay [2] deals with T1, human αd/CD18 heterodimer expressed on …. The assay is described as follows: adhesion of CHO transfectants to immobilized CAM, crystal violet A570. The procedure:
(§1) The ability of CHO cells expressing either α₄β₁ or αdβ₂ to bind a five domain VCAM-1/Ig fusion protein or ICAM-1/Ig fusion protein was tested as follows. CAMs were immobilized on 96 well microtiter plates at 0.5 μg/well in bicarbonate buffer (pH 9.5). Plates were blocked with 1% fish gelatin and treated with either buffer, irrelevant antibody or a blocking VCAM-1 antibody. […] Cells were washed before addition to the CAM-coated wells at a density of 100,000 cells per well. Cells were incubated in the presence of the immobilized […] for twenty minutes before addition of 5% glutaraldehyde. Following fixation, plates were washed with distilled water and cells were stained with 1% crystal violet, After destaining with 66% ethanol for several hours, absorbance at 570 nm was measured on a Dynatech plate reader.

Assay [3] concerns the target B4. In words: ELISA, bound IgG4 detected with HP6023.
Assay [4] addresses T2, soluble ICAM-R/IgG1 fusion protein (UniProt P32942 30-485, limits assumed).
T2 construct: not shown: IgG1 portion
T2 sequence (looked up): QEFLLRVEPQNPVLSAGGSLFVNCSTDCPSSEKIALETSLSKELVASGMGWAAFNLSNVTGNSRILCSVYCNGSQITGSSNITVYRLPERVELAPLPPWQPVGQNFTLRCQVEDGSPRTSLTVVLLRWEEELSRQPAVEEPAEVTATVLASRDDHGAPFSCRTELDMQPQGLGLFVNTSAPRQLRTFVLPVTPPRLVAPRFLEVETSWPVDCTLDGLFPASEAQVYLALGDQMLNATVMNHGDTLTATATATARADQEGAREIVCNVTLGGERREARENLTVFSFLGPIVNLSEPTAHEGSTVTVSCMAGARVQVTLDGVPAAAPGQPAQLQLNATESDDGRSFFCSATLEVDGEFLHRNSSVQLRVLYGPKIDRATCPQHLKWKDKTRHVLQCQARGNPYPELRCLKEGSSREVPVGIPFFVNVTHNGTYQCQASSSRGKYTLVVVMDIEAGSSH
The assay is described as follows: ELISA, bound IgG4 detected with HP6023.

The target of assay [5] is T3, LFA-1 leucine zipper fusion protein (soluble CD11a/CD18) (UniProt P20701 26-1090; P05107 23-700).
T3 construct: also called LFA-1LZ; captured CD11a/CD18
The assay is described as follows: ELISA on LFA-1LZ captured with TS2/4.1. The method, then: (§2) The same protocol was used to immobilize the anti-CD11a antibody TS2/4.1 for immobilization of a LFA-1 leucine zipper (LFA-1LZ) fusion protein; LFA-1 was used as a negative control for VCAM-1 binding and a positive control for ICAM-1 binding. The plates were blocked with 300 μl/well 3% bovine serum albumin for one hour and washed in D-PBS. Tissue culture supernatants from stable CHO transfectants expressing either αd/CD18LZ or LFA-1LZ were added at 100 μl/well and allowed to incubate for 6 to 8 hours at 4° C. The plates were washed twice with Tris-buffered saline with Tween® 20 (TBS-T), followed by one wash with TBS (no Tween®) containing 2 mM each calcium chloride, magnesium chloride, and manganese chloride. The latter served as assay and wash buffer during the remainder of the assay.
(§3) After integrin capture, the plates were washed three times with 250 μl/well TBS. Purified CAM/Ig (see Example 12) was added to each well following serial 2:3 dilutions starting at a concentration of 10 to 20 μg/ml. CAM/Igs were allowed to bind for two hours at room temperature before plates were washed as above. Bound fusion protein was detected with horseradish peroxidase-conjugated goat anti-human Ig antibody (Jackson Labs) followed by development with o-phenyldiamine (OPD).

The target in assay [6] is B6. The assay is described as follows: ELISA, bound IgG4 detected with HP6023.
The next assay has as its target T4, bovine serum albumin (bovine, UniProt P02769 25-607).
T4 construct: also called BSA
In words: ELISA, bound IgG4 detected with HP6023.

Assay [7] deals with T1, human αd/CD18 heterodimer expressed on …. In words: adhesion of CHO transfectants to immobilized CAM, crystal violet. The method, then:
as §1

Assay [8] has as its target T5, α4β1 expressed on CHO cells (UniProt P13612 34-1032; P05556 21-798, limits assumed).
T5 construct: whole, on cells; also called α4 transformed CHO cells; α4 transfected line
Described as above. The method, then:
as §1

Assay [9] has as its target T3, LFA-1 leucine zipper fusion protein …. In words: ELISA, CAM/Ig on captured soluble CD11a/CD18. The procedure: as §2, §3

T4 sequence (P02769 25-607 limits assumed): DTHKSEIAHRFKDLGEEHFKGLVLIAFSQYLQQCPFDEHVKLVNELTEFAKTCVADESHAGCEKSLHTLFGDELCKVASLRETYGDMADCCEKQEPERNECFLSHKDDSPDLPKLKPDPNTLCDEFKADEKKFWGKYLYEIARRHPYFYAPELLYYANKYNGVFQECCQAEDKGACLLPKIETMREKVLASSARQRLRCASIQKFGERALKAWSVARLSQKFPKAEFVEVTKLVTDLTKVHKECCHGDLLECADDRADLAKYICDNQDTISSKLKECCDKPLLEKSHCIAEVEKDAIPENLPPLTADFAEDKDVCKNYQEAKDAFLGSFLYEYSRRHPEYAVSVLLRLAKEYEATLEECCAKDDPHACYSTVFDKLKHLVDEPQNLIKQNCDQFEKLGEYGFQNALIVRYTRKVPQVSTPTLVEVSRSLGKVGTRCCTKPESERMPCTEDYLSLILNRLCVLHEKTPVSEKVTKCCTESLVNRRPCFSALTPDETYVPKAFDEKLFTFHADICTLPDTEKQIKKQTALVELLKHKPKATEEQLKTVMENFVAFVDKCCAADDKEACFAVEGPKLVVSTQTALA

B1: E-selectin, immobilized recombinant (ligand, UniProt P16581 22-556, looked up)
chain: WSYNTSTEAMTYDEASAYCQQRYTHLVAIQNKEEIEYLNSILSYSPSYYWIGIRKVNNVWVWVGTQKPLTEEAKNWAPGEPNNRQKDEDCVEIYIKREKDVGMWNDERCSKKKLALCYTAACTNTSCSGHGECVETINNYTCKCDPGFSGLKCEQIVNCTALESPEHGSLVCSHPLGNFSYNSSCSISCDRGYLPSSMETMQCMSSGEWSAPIPACNVVECDAVTNPANGFVECFQNPGSFPWNTTCTFDCEEGFELMGAQSLQCTSSGNWDNEKPTCKAVTCRAVRQPQNGSVRCSHSPAGEFTFKSSCNFTCEEGFMLQGPAQVECTTQGQWTQQIPVCEAFQCTALSNPERGYMNCLPSASGSFRYGSSCEFSCEQGFVLKGSKRLQCGPTGEWDNEKPTCEAVRCDAVHQPPKGLVRCAHSPIGEFTYKSSCAFSCEEGFELHGSTQLECTSQGQWTEEVPSCQVVKCSSLAVPGKINMSCSGEPVFGTVCKFACPEGWTLNGSAARTCGATGHWSGLLPTCEAPTESNIP
notes: also called E-selection
With B1, in [1], the binding result is on record as “no binding (tested: 100 ng/ml coat)”.

B2: VCAM-1 domains 1 and 2 fused to human immunoglobulin Fc (Fc fusion, UniProt P19320 25-220, looked up, not shown: a dimerising Fc or GST)
chain: FKIETTPESRYLAQIGDSVSLTCSTTGCESPFFSWRTQIDSPLNGKVTNEGTTSTLTMNPVSFGNEHSYLCTATCESRKLEKGIQVEIYSFPKDPEIHLSGPLEAGKPITVKCSVADVYPFDRLEIDLLKGDHLMKSQEFLEDADRKSLETKSLEVTFTPVIEDIGKVLVCRAKLHIDEMDSVPTVRQAVKELQVY
notes: domain: domains 1 and 2; also called two domain form of VCAM-1
Take B2: in assay [2], the binding result is “binds”.

B3: CD11a I domain/IgG chimeric protein (Fc fusion, UniProt P20701 153-332, looked up)
chain: GNVDLVFLFDGSMSLQPDEFQKILDFMKDVMKKLSNTSYQFAAVQFSTSYKTEFDFSDYVKRKDPDALLKHVKHMLLLTNTFGAINYVATEVFREELGARPDATKVLIIITDGEATDSGNIDAAKDIIRYIIGIGKHFQTKESQETLHKFASKPASEFVKILDTFEKLKDLFTELQKKIY
notes: domain: I domain; Negative control; also called CD11a/IgG4 protein; not shown: IgG4 portion
Take B3: the binding result in assay [3] and in assay [4] was “no binding” each time. With B4, the binding result in assay [5] is reported as “no binding”.

B5: human αd I domain/IgG4 fusion protein (Fc fusion)
chain: IVFLIDGSGSIDQNDFNQMKGFVQAVMGQFEGTDTLFALMQYSNLLKIHFTFTQFRTSPSQQSLVDPIVQLKGLTFTATGILTVVTQLFHHKNGARKSAKKILIVITDGQKYKDPLEYSDVIPQAEKAGIIRYAIGVGHAFQGPTARQELNTISSAPPQDHVFKVDNFAALGSIQKQLQEKIYAVEGTQSRASSSFQHEMSQE
notes: Residue limits approximate; also called Iαd/IgG4; I domain chimera; not shown: human IgG4 portion
Consider B5, for which the binding result (in [6]; in the assay with bovine serum albumin) was “no binding” in each case. As for B6, the binding result in [7] and in assay [8] was “no binding (tested: 0.5 µg/well coat)” each time. This molecule registered a fold above background in [9] of roughly 15 fold.
